Experimental data taken from the DeepSol protein solubility set.

Assay: soluble on expression in E. coli; label from the status in PepcDB or PDB records

Soluble on expression in E. coli, not soluble:
MGSDKIHHHHHHMTESEKQKLGKTLWAIADQLRGAMNADDFRDYMLAFLFLRYLSDNYEAAAQKELGTDYPDLPSDVLRQTGVNTPLQAWYEENLDDVSEFEKQMRRKVHYVIEPQYLWGNIAEMARTQDDELLHTLQKGFKYIEEESFASTFRGLFSEINLASDKLGKTYTERNARLCKIIAEIAKGLGQFSTDSDTLGDAYEYLIGQFAAGSGKKAGEFYTPQRISDILSAIVTLDSQEPATGKRSHLDSVFDFACGSGSLLLNVRRLMGPHGIGKIYGQEKNITTYNLARMNMLLHGVKDSEFEIFHGDTLLNEWDMLRETNPAKMPKFDAVVANPPFSYRWEPSEALGEDVRFKNYGLAPKSAADFAFLLHGFHFLKQDGVMAIILPHGVLFRGGAEARIRTKLLKDGHIDTVIGLPANLFFSTGIPVCILVLKKCKKPDDVLFINAAEHFERGKRQNQLLPEHIDKIIDTYRYRKEEPRYSRRVSMEEIEKNDFNLNISRYVSTAITEEEVDLNAVIGQLKAIEQEIYQAKSKHNEFLKELGLPLLP
MGSDKIHHHHHHMTGRNILTESESDRGRVLFSPAFRRLQQKAQVFSMEPNAAVRSRLTHSFEVSQIGRYIADLLSEKLGIATEQQAGALVNFVETACLMHDIGNPPFGHFGEEAIKKWFEDNGERCLRLSIGRPKPSDGACPDQAKVRDALVDFADFDGNPQGLRIVARLQWNTDEFGLNLTKTSLASFMKYIRMAGGEKSGIFTKKAGYFTTERDLVESVWREFGYELPQRFPLAYIMEAADDIAYCISDLEDSFEKDIVRPDDALSYVEEQYERHEFEDGDPKHVDIRRAIRQMRAKERESGGEFTFTDFRTSLNNVIVNYVADRYVENHSKILDGTLESLIPGNEPPGAILNAIRKFCREHVYTHESVQRVELAGYNAIRGLLEQCSSLLCISAEGFRAARANEKQDAKGQALVLEPKLLRLFPEKYIKVYDYHLKQAGGDEADPFLEWTYRAHLIVDFISGMTDDFAMTTYRTLAGMRL
MGSDKIHHHHHHMTGTANYVEFEPTRMGLYEASIRVKHECPYRRISERYPDLTIREWPLSDCQVLEITTETTPTDELLDEINEIGTVLYESADDNGYHVVTQSCLCSLEDSVIDRFEEHNCLYQSPTIYRQGWEHYTVVAFDSEDVRELLDSLRSDREIELLSKTSISETQIPHSMLAPANQLFEDITDRQLAALQLALESGYYEQPRKTSLRDLAERTAVARSTYEEHLRKAENKLLTNAGQFLRLVTATSTTNPLGVESGRRTEQTAD
MGSDKIHHHHHHMTHDDVIQAIVNTIRDVPGIRALFLSGSYGNGLADEYSDIDFVLVSEDGATDAVAEAWRNAVEKTGEIVLWWDRTTVPVLINAITEDWTRTDVIILKPDQMGRQTKDALKPLFDHDNIYDTLKDAAPKPGPDLKRFRYEVEEFIRILGLLQLAVGREEYINGVLGVSLLRSKLVNLLIEETDAPNRGGILHLNRLITEDQKQVLISLPPAVPERDAMISAHLAYAAAYLPRARRRAERLGMEWPERFEAVTWSRLEKTLSIRRPYD
MGSDKIHHHHHHMTHDTSPIHRTIELPDELLVGAIDTHIHSGPWLKSCPGRLDPFQIAEQAKQAGMRAVVFYDHTFGNSAGTSWMVRRSVPGIDVYGGIILTTNFGGMNPRAVKTALHYGDGAKFVHFGTHCTYHMASREGSYVDGKPVPFKDLYPKFAEQELARAIRIPLDGPVPGELEEILGLVAGHPDVYLNTGHISPGEVMRLAELAERFGIRKMIVAHPARAWLSTAQQKDLSARGFFLEGSVSDWLFHRGLPRTNYYVEREYADEIAGIANEPQFQGVVQWASQLREVGLANVVLGTDYGIGSCPAPREGMRLLISTLLDLQFSLAEIELLTRRNPARLLGLE
MGSDKIHHHHHHMTITPHTLAVWADDQRAGLLDRSIDQHQYVFAYDPAAESPSAQVSLTMPVRLESWASRDLHPIFQMNLPEGALLEAIRRTVSKLIGEDDLTILRVTGGNQVGRNRFSLAADPAPGIVETKESLDELLSYPDTEELFNDLVAKYALRSGVSGVQPKVMLDATERGTAAVGGYIVKSWGSEYPQLAANEFFCMTAAKRAGLSVPEFHLSENGGLFVMKRFDLGERGEPLGFEDICSLQALATTRKYSSTYERVARTIKDFVSPAALLVAREQFFASLVLSCMVRNGDAHLKNFGVLYDRPGQLVQLAPVYDVVTTTAYIPKDVPALSLFGTKKWWSRRALERFAVSHLSLPVGRVGQILEKVAEAVTDTRGIVSAYMVEHPEYREVGNLQLASWEVGVANLVLI
MGSDKIHHHHHHMTIVSAFLLPGSPLPQLRPDITPWGRIREGLSRAGKALAESKPDCVLVYSTQWFAVLDQLWITRARSTGVHVDENWHEFGEQAFDIHSDCALAQRCVDACNAAGIKTRGVDYDQFPIDTGTITATTLMGFGSASLPVVIAANNLYHSAEQTEQLGAIASAALQDKRAAVLGIGGLSNSAFRENIDLEKDHILSEADDKWNQRVLALMESGDIEAIRAILPQYSTEARPDMGLKHFYWLLGAMNASFKKATVHEYAPLYGSGGAIVQFDVQ
MGSDKIHHHHHHMTKFSVYIGIDWANDKHDVCVQVANSSARKFEVIKHSPKSINEWITSLHKQYKGQIAVAIELSKGPIVYALQKFDFITIHPVNTSMLAQYRKAFSPSGAKDDPTDAELALDLMLRYPNKIKALKMDSESVRKLTYLVEQRRKLVDDKRRFSNRLIITLKEYYPHLLDWFSHRGSGIFCDFITRWPNLQKLKRARADTLKKFFGSYPGRTAAYSVKRIQSISEAEPLTLDNAVIESHQLLAVALANQLLVAVKVIKVFDREISELFNALPDAELYKSLPGTGPCLAPRLLVAIGENRSRFNSASEIQMYAVIAPVTVRSGQKSWIHWRYQCSKFTRQSFIEWATKSIRQSYWAEIYYQQQREKGNTHQAAVRSLAFKWIRIIYRCWKTKEPYNEAKYLKALSDRNSPLLFKEKAC
MGSDKIHHHHHHMTLQQLRQVLTIAESNSMNEAAKKLFVSQPNLSATVREVEEELGITVFMRNNRGITVTAEGEEFLGYAKQVVEQYHLLENRYLNVESKKKFSVSMQHYSFAVKAFVQLAKEVGMDEYEFAVHETKTKEVIDNVKNLKSEIGVLYLSDFNEKVLRKLFKECDIEFKELFTCNTYVYLWKKHPLAGQKEITLDDLQEYPCLTFEQGVNNSFYYAEEMMSTYEYKRVIKADDRATMLNLMVGLNGFTLCSGIISEDLNGDDYAAIPLKESEKMHIGYIKHKGTKLSKLGEIYIDALKNYENKVL
MGSDKIHHHHHHMTLRERRQKHKAQFRQEILDASRELFSQIGYERFSMRKLAAKIEHSPTTIYLYFRDKDDLLYSLCEELFAKLFQSYQDISRGENDPRQVLRLCLLRYIEFGLANPGHYKVAFFTSPVVYGSPTEFLQKDSMGRRTYFHILRTVEETMAAGMLRPMDADLLAQTVWVAAHGVVTSRIYSADFPMVDAVLQAETLVDGLLAGFSVKNFFGTNIYTVN
MGSDKIHHHHHHMTMTDERPVLVATEADDITADMVITELNRRDVPVVRFNLADIGEGLTVSARFGTCPAPVVGQVRTSSRTADLTRVRSVYWRRPEWPSFPHLSPDDSRFAAAQVRYGLGGTLYALDHPLWVNHPLRIAAADYKPAQLALAQQLGFTIPTTLVTNDPAEAREFIRTQGDVIFKTLRWTPYTRDGVPVTGWADPVTADEIDDNVRITPHLFQARVDKVTDLRVLIVGQHTFAVRIDSELLDWRRDYSVLTYTVEHLPDSVDKALHAYLDRLELVSGSFDLTVDRAGVYWWLELNPNGQWGWLEKETGLPMSAAFADLLVQGDRQ
MGSDKIHHHHHHMTMVLDQVVPFGRSMDEYIKIFNLTDADLNKKIIGIGDGPASFNAEMTRQGKSVISVDPLYQFSGDEILQRFNEVLDNIINQVKATSNNWVWSYHKSPDDLRHNRVKVIREFLSDYENGKKSNRYIVDEFPKLKFKTQEFEIALCSHLLFLYSDHLDYDFHLNSIGEMLRIAKEIRIFPLITLMWKHSQHLDEIVKHYTSIGYKIDIENVEYELQPGGNKMLKITRDFYKNHNL
MGSDKIHHHHHHMTNLVTLENVSVAFGQRRVLSDISLALTPGKILTLLGPNGAGKSTLVRVVLGLVAPTEGVIKRDARLRIGYVPQKLHLDATLPLTVSRFLRLRPGTRKDDILPALKRVQAGHLIDAPMQKLSGGETQRVLLARALLNRPQLLVLDEPTQGVDVNGQVALYDLINQLRHELDCAVLMVSHDLHLVMAKTDEVLCLNQHICCSGAPEVVSMHPEFISMFGPRGAEQLGIYRHHHNHRHDLQGRIVLRRGNSR
MGSDKIHHHHHHMTPDQYCQEKAVQSGSSFYYSFLYLPPERRRAITALYAFCREVDDVVDECTEASVARVKLAWWRQEVAAIFDAGGNKPSHPVAQALAGVASTFNLTADRLNEIIDGMEMDLDYNRYADFDTLRHYCYHVASVVGLCSAEIFGYRNPKTLEYAQDLGLAFQLTNIIRDVGEDARRDRIYLPQDELARFGVSNEDILQSRETDNFRRLIEFQIDRAESYYANAFAALPEEDRKSQRSGIIMAAIYQALLKEIKADGCHVMRQRISLTPLRKLWIAWKTWMKG
MGSDKIHHHHHHMTPIAQRDGQAIQLVGFDGDDTLWKSEDYYRTAEADFEAILSGYLDLGDSRMQQHLLAVERRNLKIFGYGAKGMTLSMIETAIELTEARIEARDIQRIVEIGRATLQHPVEVIAGVREAVAAIAADYAVVLITKGDLFHQEQKIEQSGLSDLFPRIEVVSEKDPQTYARVLSEFDLPAERFVMIGNSLRSDVEPVLAIGGWGIYTPYAVTWAHEQDHGVAADEPRLREVPDPSGWPAAVRALDAQAGRQQ
MGSDKIHHHHHHMTPSAGLGLKSQHYGDAIACDAEGLWFEVHPENYMSAGGPRLAALEAVRARRPVSLHGVGLSLAADTDPDPEHLQALKRLVDRFDPFVVSEHLAWSTHRGAHHPDLLPFPRTRAALDRICGNVARMQDALQRRVLIENPSLYLPLKGHALDEVDFLEALATRTGCGLLVDVNNVFVSAQNLGYAPETYLDALPAHAIGEIHLAGHAPDPGGSNLLIDTHGAPVAEVVWTLYARLIARIGPRPTLIERDDDIPDFAALMAERNRAVAVLASGQTAREPAHV
MGSDKIHHHHHHMTQNLRVIIDARMVNKHLHGIARYTYEIIKHMSYEDNVEMILLVNDLEEASKIFGQFNNIKFKRMRSKFLSIFEQIELPMIVNKYKNMAIFHSPSFVASPFIKCKMIMTIHDLNHLKFPQYYTPFHKYYYKYIVKKCALKSKKILTVSEFSKEEIFKWIKCDRDKIKVTYNGIDPKFHVISDAEKLKKIKEKYKLPDRFILYIGNLKPHKNVETLVKAMRFIDGKVKLVINGTINKSISEILDKFNLLEKVKFIGYVNEDELPLLYNLASVFVFPSLYEGFGLPPLEAAVCGCKVIISDISSLSEIMSDYGVKVNPLDSKGMAREIKKILENSSIDICNKEKETFVQKYSWNKTSSKTLEIYKEINKEFL
